The nanobody polyreactivity screen of Harvey et al. (2022)

assay: yeast display, Sf9 membrane polyspecificity reagent, FACS + sequencing; frameworks hold sequencing errors
Procedure, shortened: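 Polyreactivity labels are assigned by the sorting gate from which each nanobody was recovered. The gates were low and high (top ~1%), set on anti-HA fluorescence for expression and streptavidin fluorescence for reagent binding. Before sorting, galactose-induced (36–48 hours) yeast display cells were stained for 1 hour at 4 °C with 10% biotinylated, detergent-solubilized Sf9 membrane reagent.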

| Sequence | polyreactivity (PSR sort gate) |
| --- | --- |
| QVQLVESGGGLVQAGGSLRLSCAASGSTFFTYAMGWYRQAPGKERELVAGISYSGGSTYYADSVKGRFTISRDNAKNTVYVQMNSLKPEDTAVYYCNAYISYGDFDLEFYYWGQGTQVTVSS | low polyreactivity |
| QVQLVESGGGLVQAGGSLRLSCAASGFTFIGYAMGWYRQAPGKERELVAAITQSGGSTFYADSVKGRFTISRDNAKNTVYLQMNSLKPEDTAVYYCNAYRKFRYWGQGTQVTVSS | low polyreactivity |
| QVQLVESGVGLVQAGGSLRLSCAASGRIFYRNAMGWYRQAPGKEREFVAAITFRSGGTYYADSVKGRFTISRDNAKNTVYLQMNSLKPEDTAVYYCATRYLGASRYGYWGQGTQVTVSS | high polyreactivity |
| QGQLVESGGGLVQAGGSLSLSCAASGSIFPVYAMGWYRQAPGTEREFVARIRFSGGRTYYADSVQGRFTISRDNAKNTVYLQMNSLKPEDTAVYYCAKAQYRGRYGYWGQGTQVTVSS | high polyreactivity |
| KVQLVESGGGLVQEGGSLPLSCAASGRTFDYNTMGWYRQAPGKERELVAAISSRGDSTYYADSVKGLFTISRDKAKNTVYLQMNSLNPEDTAVYYCAARYYPGRGFGYGYWGQGTQVTVSS | high polyreactivity |
| QVQLVESGGGLVQAGGSLRLSCAASGRIFRYYAMGWYRQAPGKERELVAAISVSGGSTYYADSVKGRFTISRDNAKNTVYLKMNSLKPEDTAVYYCAARIKTYSKRYYWGQATQVTVSS | high polyreactivity |
| QVQLVESGGGLVQAGGSLRLSCAASGFTFWYYAMGWYRQAPGKERELVATISRGGGSTYYADSVKGRFTISRDNAKNTVYLQMNSLKPEDTAVYYCNAALTRVSRFWGGDYYYWGQGTQVTVSS | high polyreactivity |
| QVQIVESGGGLVQAGGSLRLSCAASGRIFVVNDMGWYRPATGKERELVAAINSGGRTNYADSVKGRFTISRDNAKNTVDLQMNSLKREATAVYFCNAKRTGPWFLHVPVYYWGQGTQVTVSS | low polyreactivity |
| QVQLVESGGGLVQAGGSLRITCAASGSIYKSNAMGWYRQAPGKEREFVAAITWSGGSTYYADSVKGRFTISRDNAKNTVDLKMNSLKPEDTAVCYCAATQYRSDGWRYDYWGQGTQVTVSS | high polyreactivity |
| QVQLVESGGGLVQAGGSLRLSCAASGRIFGAYAMGWYRQAPGKERELVAAITSRGGNTYYADSVKGRFTISRDNAKNTVYLQMNSLKPEDTAVYYCAARHDKLRQYYVGQSAFDYWGQGTQVTVSS | low polyreactivity |
| QVQLVESGGGLVQAGGSLRLSCAASGFTFGRTVRGWYRQAPGKERELVAAISSSGGSTYYADSVKGRFTISRDNAKNTVYLQMNSLKPEDTAVYYCAAVLVSWYRNPQYDYWGQGTQVTVSS | high polyreactivity |
| QVQLEESGGGLVQAGGSLRLSCAGSGGIFDVYAIGWYRPAPGKERELVAAITASGGSTYYADSVQGRFTISRDNAKNTVYFQMNSLKPEDTAGYYCAVQGFRYHSREYDYWGQGTQVTVSS | low polyreactivity |
| QVQLVESGGGIVQAGGSLRLSCAATGFIFDQNAMAWYIQAPGKERELVAAISKRGGSTYYADSVKGRFTISRDNAKNTVYLQMNSLKREDTAVYYGATRSWGPYYYGYNHWGQGTQVTVSS | high polyreactivity |
| QVQLVESGGGLVQAGGSLRLSCAASGSIFYPYAMGWYRQAPGKERELVAAISSSGGSTYYADSVKGRFTISRDNAKNTVYLQMNSLKPEDTAVYYCAADAATGIFDRLNYWGQGTQVTVSS | high polyreactivity |
| QVQLVESRGGLVQAGGSLRLSCAASGLIFGFNTMGWYRQAPGKERELVAAITSGGGSTYYADSVKGRFTISRDNAKNTVYLQMNSLKPEDTAVYYCNAGGGRWRARQWHDYWGQGTQVTVSS | low polyreactivity |
| QVQLVESGGCLVQAGGSLRLSCAPSGSTFIPNPMGWYRQEPGKERELVAAISRRGGSTNYADSVKGRFTISRDNAKNTVFLQMNSVKPEDTAVYYCAAVSPRRYRYDYWGQGPQVTVSS | low polyreactivity |
| QVQLVESGGGLVQAGGSLRLSCAASGSIFNYNMGLYRQAPGKERELVAAVSTNYADSVKGRFTISRDNAKNTVYLQMNSLKPEDYAVYYCGVTPEKSGDEYDNWGQGTQVTVSS | low polyreactivity |
| QVQLEESGGGLDQAGVSLRLSCAASGRTFPSNTMGWYRQAPGKERELVAAISWRGGSTYYADSVKGRFTITRDNAKKTVYLQMNSLKPEDTAVYYCNTLTKAYRSKSYYEWGHGTQVTVSS | high polyreactivity |
| QVQLVESGGGLVQAGGSLRLSCAASGGIFDFYAMGWYRPAPGKERELVAAITRSGSSTFYADSVKGRFTLSRDNAKNTVDLQMNSLKPEDTAIYYCAADYSHLPIAWYYYWGQGTQVTVSS | low polyreactivity |
| QVQLVESAGGLVQAGGSLRLSCAASGSIFPFYAMRWYRQAPGKERELVATINFSGGSTYYADSVKGRFTISRDNAKNTVYLQMNSLKPEDTAVYYCAASYGAKYIVLYDYWGQGTQVTVSS | low polyreactivity |
| QVPLVESGGGLVQAGGSLRLSCAASGSTLWVYAMGWSRQAPGKERELVAAITQSTGDTHYADSVKGRFTISRDNAKNTVYLQMNSLKPEDTAVYYCAADSYLSVYDPYGDWGQGTQVTVSS | low polyreactivity |
| QVQLVESGGGLVQAGGSLRLSCAASGSTFVRNAMGWYRQAPGKERELVAAISRSGGRTYYADSVKGRFTISRDNAKNTVYLQMNSLKPEDTAVYYCAKKRSKPISFDYWGQGTQVTVSS | high polyreactivity |

| Sequence | polyreactivity (PSR sort gate) |
| --- | --- |
| QVQLVESGGGLVQAGGSLRLSCAASGRTFRYNDMGWYRQAPGKERELVADITFSGGNTYYADSVKGRFTISRVNAKNTVYLQMNSLKPEDTAVYYCAKRRYYTGGMDYWVQGTQVTVSS | low polyreactivity |
| QVQLVESGGGLVQAGGSLRLSCAASGSTFAQNAMGWYRQAPGKEREYVAAITGTVGSTYYADSVKGRFTISRDNAKNTVYLQMNSLKPEDTAVYYCNTRGFNGRVYPYDYWGQGTQVTVSS | low polyreactivity |
| QVQLVESGGGLVQAGGSLRLSCAASGSIFHPYGMGWYRQAPGKERELVARISWSTSSTNYADSVKGRFTISRDNAKNTVYLQMNSLKPEDTAVYYCAADYYVFPGYDYWGQGTQVTVSS | high polyreactivity |
| QVQLVESGGGLVQAGGSLRLSCAASGSTFWAYAMGWYRQAPGKERELVATITWSVGGTYYADSVKGRFTISRDNAKNTVYLQMNSLKPEDTAVYYCATDAYVKGVYEISEDRVDYWGQGTQVTVSS | low polyreactivity |
| QVQLVESGGGLVQAGGSLRLSCAASGSTFVVNAMGWYRQAPGKERELVAAIRGSAGSTYYADSVKGRFTISRDNAKNTVYLQMNSLKPEDTAVYYCAAYYRRYKSKYDYWGQGTQVTVSS | high polyreactivity |
| QVQLVESGGGLVQAGGSLRLSCAASGFTFEIYTMGWYRQAPGKERELVAAISTGGNTKYADSVKGRFTISRDNAKNTVYLQMNSLKPEDTAVYYCAKGRKPGYYYWGQGTQVTVSS | high polyreactivity |
| QVQLVESGGGLVQAGGSLRLSCAASGSIFKQYAMGWYRQAPGKERELVARITGSGGSTYYADSVKGRFTISRDNAKNTVYLQMNSLKPEDTAVYYCATKRYARSSGGYDYWGQGTQVTVSS | low polyreactivity |
| QVQLVESGAGLVQAGGSLRLSCAASGFTFDYYAMGWYRQAPGKESELVATINGASSTNYADSVKGRFTISRDNAKNTVYLQMNSLKPEDTAVYDCNARYYGPDFVLAYDYWGQGTQVTVSS | low polyreactivity |
| QVQLVESGGGLVQAGGSLRLSCAASGSIFQRYTMGWYRQAPGKERELVAAITSRSGRTYYADSVKGRFTISRDNAKNTVYLQMNSLKPEDTAVYYCATVPYDQTRGYKYDYWGQGTQVTVSS | high polyreactivity |
| QVQLVESGGGLVQAGGSLRLSCAASGRTFPGYAMGWYRQAPGTEMEMVAAISSGGGTKYADSVKGRFTISRDNAKYTVYVQMNSLKPEDTAVFYCAARGGTYHWGRYYWRQYDYWGQGTQVTVSS | high polyreactivity |
| QVQLGESGGGLVQAGGSLRLSCAASGSIFSKYAKGSYRQAPGKERELVAAITMNGGSTYYADSVKGRFTISRDNAKNTVYFQMNSLKPEDTAVYYCSKSERPWWGYYYQFDYWGQGTQVTVSS | low polyreactivity |
| QVQLVESGGGLVQAGGSLRLSCAASGSIFAYNGMGGYRQPPGKERELVAAISRRGGSTTYADSVKGRFTISRDNAKNTVYLQMNSLKPEDTAVYYCNTGAWSVRKMYYWGQGTQVTVSS | high polyreactivity |
| QVQLVESGGGLVQAGGSLRLSCAASGSIFITYARGWYRQAPGKERELVAAIRDSGDRTYYADSVKGRFTISRDNAKNTVYLQMISLKPEDTAVYYCNARWQEPLKYDYWGQGTQVTVSS | low polyreactivity |
| QVQLVESRGGLVQAGGSLRLSCAASGITFRTYSMGWYRQAPGKERELVAGIRTRTGSTYYADSVKGRFTISRDNAKNTVYLQMNSLKPEDTAVYYCAAKGSGYYGRQRIYSYTYDYWGQGTQVTVSS | high polyreactivity |
| QVQLVESGGGLVQAGGSLRLSCAASGSTFVTNAMGWYRQAPGKERELVAAITSGAGTYYADSVKGRFTISRDNAKNTVYLQMNSLKPEDTAVYYCAARRYYSRGRYRFGYWGQGTQVTVSS | high polyreactivity |
| QVQLVESGGGLVQAGGSLRLSCAASGFTFLYNAMGWYRQAPGKERELVASINSGGSTNYADSVKGRFTISRDKSKNTVYLQMNRLKPEDTAVYYCNAKRHVRKGDYGGQGTQVTVSS | low polyreactivity |
| QVQLVESGGGFVQAGGSLRLSCAASGFTFVGYAMGWYRQAPGKERELVAAITRRGGSTYYADSVKGRFTISRDNAKNTVYLQMNSLKPEDTAVYYCNKASYRISVPRYDYWGQGTQVTVSS | high polyreactivity |
| QVQLVESGGGLVQAGGSLRLSCAASGSTFRYYAMGWYRQAPGKERELVAAITQSGGITYYADSVKGRFTISRDNANNTVYLQMNSLKPEDTAVYFCAKRYYVDYDYWGQGTQVTVSS | low polyreactivity |
| QVQLVESGGGIVQAGGSLRLSCAASGRIFYDHAMGWYRQAPGKERELVAAITSVRSTNYADSVKGRFTISRDNAKNTVNLQMNSLKPEDTAVYYCARASAWYGTLVGKYTKYDYWGQATQVTVSS | low polyreactivity |
| QVQLVESGGGLVQAGGSLRLSCAASGFIFAAYAMGWYRQAPGKERELVAAITWDGGSTYYADSVKGSFTISRDNAKNTVYLQMNSLKPEDTAVYYCAARRRHGYDYWGQGTQVTVSS | high polyreactivity |
| QVQLGESGGALVQAGGSLRLSCAASGSTIYAYDMGWYRPAPGKERELVAAISSGGSTYYADSVKGRFTFSRDNAKNTVYLQMNCLKPEDTAVYYCATEYTYELEASEPSDYDYWGQGTQVTVSS | low polyreactivity |
